Patent US20230212291A1 (BEIGENE, published 2023)

Biological target: T1, full-length human OX40 expressed on HuT78 cells (HuT78/OX40) (human, UniProt P43489 29-277)
T1 sequence: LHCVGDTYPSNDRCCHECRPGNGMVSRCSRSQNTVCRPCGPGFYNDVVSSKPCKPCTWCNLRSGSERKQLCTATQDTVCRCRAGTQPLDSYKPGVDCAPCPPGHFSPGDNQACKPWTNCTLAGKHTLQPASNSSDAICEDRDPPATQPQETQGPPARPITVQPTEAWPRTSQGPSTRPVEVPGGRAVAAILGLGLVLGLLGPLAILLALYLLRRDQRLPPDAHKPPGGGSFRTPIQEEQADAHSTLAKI
Test: cell-based or functional assay

ADCC (LDH release), NK92MI/CD16V effector cells, HuT78/OX40 target cells (EC50): 27 ng/mL
IL-2 production by HuT78/OX40 cells co-cultured with HEK293/OS8Low-FcγRI cells (EC50): 0.06 ng/mL
B1: 445-3 (antibody, human IgG1, V domains shown)
VH: QVQLVQSGAEVKKPGSSVKVSCKASGYKFTSYIIHWVRQAPGQGLEWMGYINPYNEGTRYNQKFQGRVTLTADKSTSTAYMELSSLRSEDTAVYYCARGYYGSSYAMDYWGQGTTVTVSS
VL: DIQMTQSPSSLSASVGDRVTITCRASQGISNYLNWYQQKPDGAIKLLIYDASTLYSGVPSRFSGSGSGTDFTLTISSLQPEDFATYYCQQYSKLPYTFGGGTKVEIK
